Data as given in paper PMC13544220, “Glycemic and bodyweight effects of GIPR coding variation reflect differences in surface expression and intrinsic functional impairment” (Science Advances, 2026).
Changes are numbered by the printed parent chain. Names may count otherwise.

Experiments:
Format in all cases: cell-based, human
[1] = tested on: wild-type and variant SNAP-GIPR; assay: Constitutive and agonist-mediated internalization, reversible SNAP-tag labelling, INS-1 cells; set-up: key to Internalisation, GIP-only / Internalisation, Vehicle / Internalisation, +GIP: % internalization: residual fluorescence after Mesna vs pre-Mesna; details: Mean; for +GIP internalisation (100 nM) / GIP-specific internalisation (100 nM) / Constitutive internalisation (100 nM): Fig 4G; for +GIP internalisation (100 nM) / GIP-specific internalisation (100 nM): GIP 100 nM; for Internalisation, +GIP / Internalisation, GIP-only / Internalisation, Vehicle: Fig S4C, INS-1
Summary of the method: (§1)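 Percentage internalization is read as the fraction of specific SNAP fluorescence that survives Mesna stripping, compared with the image taken before Mesna. Wells are imaged in TNE buffer at pH 8.6 and again after 10 min.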

[2] = tested on: wild-type and variant SNAP-GIPR; assay: cADDis cAMP imaging in AD293 cells, ensemble, expression-matched and per decile; details: Fig S3F, cADDis, mean;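 note: Ensemble cells as % of IBMX/FSK response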
Summary of the method: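 AD293 cells were transfected with SNAP-GIPR constructs and cotransduced with the cADDis Green Up cAMP sensor, then labeled after 24 h with 500 nM SNAP-Surface Alexa Fluor 647. Per-cell cADDis intensity was tracked at 37°C in KRBH with 6 mM glucose and 0.1% BSA.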

[3] = tested on: wild-type and variant SNAP-GIPR; assay: Surface SNAP-GIPR expression (SNAP-tag labelling) in INS-1 cells; details: Fig 4G; Mean
Summary of the method: (§2)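 Read-out: whole-cell fluorescence of surface-only SNAP label (Alexa Fluor 647, 500 nM, 10 min, RT), wide-field 20X, several FOVs per well. Flat-field corrected, phase-contrast masked, nontransfected-well signal subtracted; normalized to experiment mean or wild-type.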

[4] = tested on: wild-type and variant SNAP-GIPR; assay: Single-concentration GIP cAMP response by HTRF in AD293 cells; details: Fig S3F, HTRF, mean;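 note: ratio to experiment-wide average response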
Procedure: (§3) All variants were tested in parallel on each occasion to control for transfection efficiency differences between experiments.

[5] = tested on: wild-type and variant SNAP-GIPR; assay: Constitutive and agonist-mediated internalization, reversible SNAP-tag labelling, AD293 cells; set-up: key to Internalisation, Vehicle / Internalisation, +GIP / Internalisation, GIP-only: % internalization: residual fluorescence after Mesna vs pre-Mesna; Surface expression: unit not given here; details: Mean; for +GIP internalisation (100 nM) / GIP-specific internalisation (100 nM) / Constitutive internalisation (100 nM) / Surface expression: Fig 4E; for +GIP internalisation (100 nM) / GIP-specific internalisation (100 nM): GIP 100 nM; for Internalisation, +GIP / Internalisation, GIP-only / Internalisation, Vehicle: Fig S4C, AD293
Summary of the method: as §1

[6] = tested on: wild-type and variant SNAP-GIPR; assay: Surface SNAP-GIPR expression (SNAP-tag labelling) in AD293 cells; details: for AD293 Surface: Fig S3E, mean; for Surface SNAP-GIPR expression: sheet Fig 1C;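 for all read-outs here: scaled to the experimental average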
Summary of the method: as §2

[7] = tested on: wild-type and variant SNAP-GIPR; assay: Single-concentration GIP cAMP response by HTRF in INS-1 cells; details: Fig S3E, mean
Procedure: as §3

[8] = column repeated, paired with cAMP 100 nM

B1: R336P (protein, UniProt P48546 22-466, looked up, variant R336P)
Gastric inhibitory …: RAETGSKGQTAGELYQRWERYRRECQETLAAAEPPSGLACNGSFDMYVCWDYAAPNATARASCPWYLPWHHHVAAGFVLRQCGSDGQWGLWRDHTQCENPEKNEAFLDQRLILERLQVMYTVGYSLSLATLLLALLILSLFRRLHCTRNYIHINLFTSFMLRAAAILSRDRLLPRPGPYLGDQALALWNQALAACRTAQIVTQYCVGANYTWLLVEGVYLHSLLVLVGGSEEGHFRYYLLLGWGAPALFVIPWVIVRYLYENTQCWERNEVKAIWWIIRTPILMTILINFLIFIRILGILLSKLRTRQMRCRDYPLRLARSTLTLVPLLGVHEVVFAPVTEEQARGALRFAKLGFEIFLSSFQGFLVSVLYCFINKEVQSEIRRGWHHCRLRRSLGEEQRQLPERAFRALPSGSGPGEVPTSRGLSSGTLPGPGNEASRELESYC
- +GIP internalisation (100 nM) [1]: 0.578
- GIP-specific internalisation (100 nM) [1]: 0.1817
- Constitutive internalisation (100 nM) [1]: 0.3963
- Internalisation, +GIP [1]: 55.395
- Internalisation, GIP-only [1]: 16.7483
- Internalisation, Vehicle [1]: 38.6467
- AD293 100 pM cADDis [2]: 30.0491
- AD293 100 nM cADDis [2]: 33.63
- Surface expression [3]: 0.9442
- AD293 100 pM HTRF [4]: 1.285
- AD293 100 nM HTRF [4]: 1.143
- +GIP internalisation (100 nM) [5]: 0.6438
- GIP-specific internalisation (100 nM) [5]: 0.1531
- Constitutive internalisation (100 nM) [5]: 0.4907
- Surface expression [5]: 1.092
- Internalisation, +GIP [5]: 55.5681
- Internalisation, GIP-only [5]: 13.0056
- Internalisation, Vehicle [5]: 42.5625
- AD293 Surface [6, 8]: 0.9922
- AD293 Surface ([6]; paired with cAMP 100 pM): 0.9922
- Surface SNAP-GIPR expression ([6]; replicate 1): 1.065
- Surface SNAP-GIPR expression ([6]; replicate 2): 0.5013
- Surface SNAP-GIPR expression ([6]; replicate 3): 1.132
- Surface SNAP-GIPR expression ([6]; replicate 4): 0.7089
- Surface SNAP-GIPR expression ([6]; replicate 5): 1.372
- Surface SNAP-GIPR expression ([6]; replicate 6): 0.9533
- Surface SNAP-GIPR expression ([6]; replicate 7): 1.085
- Surface SNAP-GIPR expression ([6]; replicate 8): 0.9069
- Surface SNAP-GIPR expression ([6]; replicate 9): 0.9059
- Surface SNAP-GIPR expression ([6]; replicate 10): 0.7148
- Surface SNAP-GIPR expression ([6]; replicate 11): 1.055
- Surface SNAP-GIPR expression ([6]; replicate 12): 1.013
- Surface SNAP-GIPR expression ([6]; replicate 13): 0.7103
- Surface SNAP-GIPR expression ([6]; replicate 14): 1.142
- Surface SNAP-GIPR expression ([6]; replicate 15): 0.8074
- Surface SNAP-GIPR expression ([6]; replicate 16): 0.9322
- Surface SNAP-GIPR expression ([6]; replicate 17): 0.8667
- Surface SNAP-GIPR expression ([6]; replicate 18): 1.004
- Surface SNAP-GIPR expression ([6]; replicate 19): 0.9824
- Surface SNAP-GIPR expression ([6]; replicate 20): 1.058
- Surface SNAP-GIPR expression ([6]; replicate 21): 0.9727
- Surface SNAP-GIPR expression ([6]; replicate 22): 0.8965
- Surface SNAP-GIPR expression ([6]; replicate 23): 0.778
- Surface SNAP-GIPR expression ([6]; replicate 24): 0.7544
- Surface SNAP-GIPR expression ([6]; replicate 25): 1.062
- Surface SNAP-GIPR expression ([6]; replicate 26): 1.025
- Surface SNAP-GIPR expression ([6]; replicate 27): 0.9727
- Surface SNAP-GIPR expression ([6]; replicate 28): 0.7869
- Surface SNAP-GIPR expression ([6]; replicate 29): 1.148
- Surface SNAP-GIPR expression ([6]; replicate 30): 1.341
- Surface SNAP-GIPR expression ([6]; replicate 31): 1.222
- Surface SNAP-GIPR expression ([6]; replicate 32): 1.042
- Surface SNAP-GIPR expression ([6]; replicate 33): 1.006
- Surface SNAP-GIPR expression ([6]; replicate 34): 0.7344
- Surface SNAP-GIPR expression ([6]; replicate 35): 1.077
- Surface SNAP-GIPR expression ([6]; replicate 36): 1.167
- Surface SNAP-GIPR expression ([6]; replicate 37): 1.212
- Surface SNAP-GIPR expression ([6]; replicate 38): 1.22
- Surface SNAP-GIPR expression ([6]; replicate 39): 1.259
- Surface SNAP-GIPR expression ([6]; replicate 40): 1.054
- Surface SNAP-GIPR expression ([6]; replicate 41): 1.032
- INS-1 cAMP (100 nM) [7]: 0.7986

B2: R404H (protein, UniProt P48546 22-466, looked up, variant R404H)
Gastric inhibitory …: B1 Gastric inhibitory … with P315R, R383H
- +GIP internalisation (100 nM) [1]: 0.3918
- GIP-specific internalisation (100 nM) [1]: 0.07675
- Constitutive internalisation (100 nM) [1]: 0.3151
- Internalisation, +GIP [1]: 48.5
- Internalisation, GIP-only [1]: 9.682
- Internalisation, Vehicle [1]: 38.8183
- AD293 100 pM cADDis [2]: 26.6869
- AD293 100 nM cADDis [2]: 37.59
- Surface expression [3]: 0.8156
- AD293 100 pM HTRF [4]: 0.3628
- AD293 100 nM HTRF [4]: 1.255
- +GIP internalisation (100 nM) [5]: 0.4112
- GIP-specific internalisation (100 nM) [5]: 0.07509
- Constitutive internalisation (100 nM) [5]: 0.3361
- Surface expression [5]: 0.7754
- Internalisation, +GIP [5]: 56.8624
- Internalisation, GIP-only [5]: 10.8785
- Internalisation, Vehicle [5]: 45.9839
- AD293 Surface [6, 8]: 0.7424
- AD293 Surface ([6]; paired with cAMP 100 pM): 0.7424
- Surface SNAP-GIPR expression ([6]; replicate 1): 0.7731
- Surface SNAP-GIPR expression ([6]; replicate 2): 0.8601
- Surface SNAP-GIPR expression ([6]; replicate 3): 1.364
- Surface SNAP-GIPR expression ([6]; replicate 4): 1.202
- Surface SNAP-GIPR expression ([6]; replicate 5): 0.6596
- Surface SNAP-GIPR expression ([6]; replicate 6): 0.8044
- Surface SNAP-GIPR expression ([6]; replicate 7): 1.014
- Surface SNAP-GIPR expression ([6]; replicate 8): 0.8566
- Surface SNAP-GIPR expression ([6]; replicate 9): 0.836
- Surface SNAP-GIPR expression ([6]; replicate 10): 0.8174
- Surface SNAP-GIPR expression ([6]; replicate 11): 0.6917
- Surface SNAP-GIPR expression ([6]; replicate 12): 0.5756
- Surface SNAP-GIPR expression ([6]; replicate 13): 0.812
- Surface SNAP-GIPR expression ([6]; replicate 14): 0.5735
- Surface SNAP-GIPR expression ([6]; replicate 15): 0.518
- Surface SNAP-GIPR expression ([6]; replicate 16): 0.5844
- Surface SNAP-GIPR expression ([6]; replicate 17): 0.7582
- Surface SNAP-GIPR expression ([6]; replicate 18): 0.6508
- Surface SNAP-GIPR expression ([6]; replicate 19): 0.4867
- Surface SNAP-GIPR expression ([6]; replicate 20): 0.616
- Surface SNAP-GIPR expression ([6]; replicate 21): 0.5336
- Surface SNAP-GIPR expression ([6]; replicate 22): 0.6715
- Surface SNAP-GIPR expression ([6]; replicate 23): 0.7341
- Surface SNAP-GIPR expression ([6]; replicate 24): 0.6837
- Surface SNAP-GIPR expression ([6]; replicate 25): 0.9077
- Surface SNAP-GIPR expression ([6]; replicate 26): 0.65
- Surface SNAP-GIPR expression ([6]; replicate 27): 0.7009
- Surface SNAP-GIPR expression ([6]; replicate 28): 0.5824
- Surface SNAP-GIPR expression ([6]; replicate 29): 0.9349
- Surface SNAP-GIPR expression ([6]; replicate 30): 0.779
- Surface SNAP-GIPR expression ([6]; replicate 31): 0.9227
- Surface SNAP-GIPR expression ([6]; replicate 32): 0.586
- Surface SNAP-GIPR expression ([6]; replicate 33): 0.6419
- Surface SNAP-GIPR expression ([6]; replicate 34): 0.7664
- Surface SNAP-GIPR expression ([6]; replicate 35): 0.5787
- Surface SNAP-GIPR expression ([6]; replicate 36): 0.8557
- Surface SNAP-GIPR expression ([6]; replicate 37): 0.7468
- Surface SNAP-GIPR expression ([6]; replicate 38): 0.7266
- Surface SNAP-GIPR expression ([6]; replicate 39): 0.577
- Surface SNAP-GIPR expression ([6]; replicate 40): 0.6491
- Surface SNAP-GIPR expression ([6]; replicate 41): 0.7544
- INS-1 cAMP (100 nM) [7]: 0.9867
